Experimental data from US20230399650.
Changes are numbered by the printed parent chain.

What was measured:
[1] = system: VapBC hetero-octamer, VapB Q12L (VapBL12C, CS14 allele) (Shigella sonnei); test: SPR; conditions: 25 C, 50 mM Tris pH 8.0, 150 mM NaCl; traces not at equilibrium; methods state chip duplex SH167 annealed with SH181 (SH181 printed is operator site 2 sequence)
[2] = system: VapBC hetero-octamer, VapB Q12A (VapBA12C) (Shigella sonnei); test: SPR; conditions: 25 C, 50 mM Tris pH 8.0, 150 mM NaCl; approximate
[3] = system: T1, VapB^Q12 (Shigella sonnei 53G wild-type VapB antitoxin)
T1 sequence: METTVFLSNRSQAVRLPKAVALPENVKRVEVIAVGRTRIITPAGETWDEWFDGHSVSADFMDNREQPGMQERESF

[4] = system: T2, VapB^A12 (Shigella sonnei VapB, Q12A)
T2 sequence: T1 sequence with Q12A

[5] = system: T3, VapB^L12 (VapB of Shigella sonnei CS14, Q12L)
T3 sequence: T1 sequence with Q12L

Substance	binding signal (fold lower affinity than VapBQ12C) [1]	binding signal (fold lower affinity than VapBQ12C) [2]	degradation after 4 hours, in the presence of control DNA [3]	degradation after 4 hours, without DNA [3]	degradation of VapB by Lon in the presence of control DNA [3]	degradation of VapB by Lon in the presence of long-chain polyphosphate [3]	degradation of VapB by Lon in the presence of operator DNA [3]	degradation of VapB by Lon, in vitro proteolysis over four hours, SDS-PAGE [3]	degradation of VapB by Lon, in vitro proteolysis with and without ATP, SDS-PAGE [3]	degradation of VapB by Lon in the presence of long-chain polyphosphate [4]	degradation of VapB by Lon in the presence of operator DNA or control DNA [4]	degradation of VapB by Lon, in vitro proteolysis with and without ATP, SDS-PAGE [4]	degradation of VapB by Lon, in vitro proteolysis, SDS-PAGE [4]	degradation of VapB by Lon in the presence of long-chain polyphosphate [5]	degradation of VapB by Lon in the presence of operator DNA or control DNA [5]	degradation of VapB by Lon, in vitro proteolysis over four hours, SDS-PAGE [5]	degradation of VapB by Lon, in vitro proteolysis with and without ATP, SDS-PAGE [5]
ATCATAAACGTATATCCCTTTGACATATCCCG (double strand) [vapBC operator site 1, biotinylated for SPR (SH180 printed)]	4	10	–	–	–	–	–	–	–	–	–	–	–	–	–	–	–
Shigella Lon protease, hexameric (Lon6)	–	–	31% vs 55% degradation after 4 hours	31% vs 55% degradation after 4 hours	significant degradation of VapB^Q12 was observed within two hours	Polyphosphate significantly reduced Lon degradation of VapB^Q12	virtually no degradation of VapB^Q12 over the course of assays	no significant difference in the degradation of VapB^Q12 and VapB^L12 by Lon protease over the course of assays	VapB degradation by Lon protease is ATP dependent	significantly enhanced Lon degradation of both VapB^L12 and VapB^A12	neither operator DNA nor control DNA affect Lon degradation of VapB^L12 or VapB^A12	VapB degradation by Lon protease is ATP dependent	after two hours we observed that VapB^A12 was degraded significantly more than VapB^L12	significantly enhanced Lon degradation of both VapB^L12 and VapB^A12	neither operator DNA nor control DNA affect Lon degradation of VapB^L12 or VapB^A12	no significant difference in the degradation of VapB^Q12 and VapB^L12 by Lon protease over the course of assays	VapB degradation by Lon protease is ATP dependent
